In patent US20070004636A1, “Method of degrading transcriptional factors of saccharometabolism-associated gene, method for inhibiting the degradation, and agent for inhibiting degradation and degradation inhibitor” (priority 2002, published 2007):

Columns and labels:
[1] = tested on: human HNF-1α; assay: in vitro protein degradation test of HNF-1α by calpain (Western blotting); format: biochemical; settings: 1 hour at 37° C.
Procedure: Using the HNF-1α expression plasmid, in vitro synthesis of HNF-1α protein was carried out using the TNT T7 Quick Coupled Transcription/Translation System. That is, the HNF-1α expression plasmid was mixed with TNT T7 Quick Master Mix, and then incubated for 1.5 hours at 30° C. in the presence of methionine to synthesize HNF-1α. Thereafter, immunoprecipitation was conducted by adding anti-Xpress antibody to the synthesized HNF-1α, mixing by inversion for 1 hour at 4° C., and then adding Protein G Sepharose 4 Fast Flow and mixing by inversion for an additional 1 hour at 4° C. Subsequently, Protein G Sepharose was collected by centrifugation and washed 3 times with washing buffer (50 mM Tris-HCl, pH 7.5/150 mM NaCl/0.2% Nonidet P-40), followed by rinsing with 200 mM Tris-HCl (pH 7.8) to obtain the HNF-1α sample as 20% slurry (hereunder, referred to as “HNF-1α slurry”).
Protein degradation tests were carried out in vitro by adding μ-calpain or m-calpain to the HNF-1α slurry, and incubating for 1 hour at 37° C. in the presence of 200 mM Tris-HCl (pH 7.8)/1 mM DTT/6 mM CaCl2. The final concentrations of the respective calpain in the reaction system were as follows: 50 units/mL of human μ-calpain; 50 μg/mL of rabbit m-calpain as a protein concentration; and 59 units/mL of rat m-calpain. For a control experiment, an HNF-1α slurry was incubated without the addition of calpain in a similar manner in the presence of calcium. Further, to test for protein degradation in the absence of calcium, a sample was prepared by adding 10 mM of EDTA instead of 6 mM of CaCl2 and was incubated in the same manner. The samples after incubation were added to an equal volume of 2×SDS sample buffer, heated for 5 minutes, and then subjected to 5-20% SDS-PAGE for separation. Thereafter, Western blotting was carried out to detect HNF-1α using anti-Omni/M21 antibody (Santa Cruz Biotechnology, Inc.), which recognizes a His-Xpress region, and anti-HNF-1α antibody/HNF-1α (C-19) antibody (Santa Cruz Biotechnology, Inc.). An ECL Western blotting detection kit was used for conducting the detection.
In-vitro protein degradation tests were carried out in the same manner as in Example 7, but the lysate of sf-9 cells that coexpressed m-calpain with calpain small subunit 1 was used as m-calpain. The final concentration of the lysate of the sf-9 cells that expressed these proteins in the reaction system was 1.75 mg/mL as a protein concentration. The final concentration of rat m-calpain in the reaction system was 59 units/mL. Detection of HNF-1α was performed in the same manner as Example 7, but only anti-HNF-1α antibody/HNF-1α (C-19) antibody was used.

[2] = target: T1, human HNF-4α (Homo sapiens, UniProt P41235); assay: binding test by intracellular coexpression/immunoprecipitation in HEK293T cells; format: cell-based; settings: FLAG-tagged m-calpain coexpressed with Xpress-tagged HNF-4α in HEK293T cells
T1 construct: expressed in transfected cells; host or cells: HEK293T
T1 sequence (P41235 10-474): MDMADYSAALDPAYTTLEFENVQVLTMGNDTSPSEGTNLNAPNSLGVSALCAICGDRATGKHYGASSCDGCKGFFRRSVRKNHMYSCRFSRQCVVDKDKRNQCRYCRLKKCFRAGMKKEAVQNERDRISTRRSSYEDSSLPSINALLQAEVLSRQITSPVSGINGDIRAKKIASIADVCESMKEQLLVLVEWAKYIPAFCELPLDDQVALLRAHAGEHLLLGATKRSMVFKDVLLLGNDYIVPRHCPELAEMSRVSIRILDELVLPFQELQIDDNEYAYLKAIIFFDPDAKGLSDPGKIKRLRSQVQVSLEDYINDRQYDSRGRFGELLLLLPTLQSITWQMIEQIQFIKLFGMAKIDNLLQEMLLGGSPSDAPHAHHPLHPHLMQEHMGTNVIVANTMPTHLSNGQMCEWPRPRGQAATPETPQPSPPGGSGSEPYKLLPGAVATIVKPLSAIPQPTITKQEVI
Procedure: First, the m-calpain gene was co-transfected with the HNF-4α gene into HEK293T cells. More specifically, after culturing a total number of 1.3×10^6 HEK293T cells for 4 hours at 37° C. in the presence of 5% CO2 (Petri dish with 60 mm diameter), 5 μg of HNF4α expression plasmid or pcDNA 3.1/His plasmid as a negative control was transfected thereto together with 5 μg of m-calpain expression plasmid using the FuGENE 6 Transfection Reagent (Roche Applied Science). After two days culturing, the cells were washed with cold phosphate buffered saline (−) (hereunder, referred to as “PBS(−)”), suspended in 500 μl of cell lysis buffer (20 mM HEPES, pH 7.5/150 mM NaCl/1 mM EDTA/1% Triton X-100/1 mM phenylmethyl sulfonyl fluoride (PMSF)), and left to stand on ice for 20 mins. Thereafter, the cells were subjected to centrifugation at 15,000 rpm for 20 min at 4° C. to collect the supernatant for use as cell lysate. Subsequently, the collected lysate was added to 18 μl of Protein G Sepharose 4 Fast Flow (Amersham Pharmacia Biotech) that was pretreated with TBS (pH 8.0) containing 0.1% bovine serum albumin, and mixed by inversion for 2 hours at 4° C., followed by centrifugation to collect the supernatant. 0.6 μg of anti-HNF-4α antibody/HNF-4α (C-19) antibody was added to the collected supernatant, and mixed by inversion for 1 hour at 4° C. […]

- binding to HNF-4α (coprecipitation with anti-HNF-4α antibody) [2]: coprecipitated
B1: human m-calpain: lysate of sf-9 insect cells coexpressing human m-calpain with calpain small subunit 1; FLAG-tagged, expressed in HEK293T cells, in Example 3 (protein, UniProt P17655 20-700; P04632 1-268, looked up)
Calpain-2 catalytic subunit: SHDRAIKYLNQDYEALRNECLEAGTLFQDPSFPAIPSALGFKELGPYSSKTRGIEWKRPTEICADPQFIIGGATRTDICQGALGDCWLLAAIASLTLNEEILARVVPLNQSFQENYAGIFHFQFWQYGEWVEVVVDDRLPTKDGELLFVHSAEGSEFWSALLEKAYAKINGCYEALSGGATTEGFEDFTGGIAEWYELKKPPPNLFKIIQKALQKGSLLGCSIDITSAADSEAITFQKLVKGHAYSVTGAEEVESNGSLQKLIRIRNPWGEVEWTGRWNDNCPSWNTIDPEERERLTRRHEDGEFWMSFSDFLRHYSRLEICNLTPDTLTSDTYKKWKLTKMDGNWRRGSTAGGCRNYPNTFWMNPQYLIKLEEEDEDEEDGESGCTFLVGLIQKHRRRQRKMGEDMHTIGFGIYEVPEELSGQTNIHLSKNFFLTNRARERSDTFINLREVLNRFKLPPGEYILVPSTFEPNKDGDFCIRVFSEKKADYQAVDDEIEANLEEFDISEDDIDDGFRRLFAQLAGEDAEISAFELQTILRRVLAKRQDIKSDGFSIETCKIMVDMLDSDGSGKLGLKEFYILWTKIQKYQKIYREIDVDRSGTMNSYEMRKALEEAGFKMPCQLHQVIVARFADDQLIIDFDNFVRCLVRLETLFKIFKQLDPENTGTIELDLISWLCFSVL
Calpain small subunit 1: MFLVNSFLKGGGGGGGGGGGLGGGLGNVLGGLISGAGGGGGGGGGGGGGGGGGGGGTAMRILGGVISAISEAAAQYNPEPPPPRTHYSNIEANESEEVRQFRRLFAQLAGDDMEVSATELMNILNKVVTRHPDLKTDGFGIDTCRSMVAVMDSDTTGKLGFEEFKYLWNNIKRWQAIYKQFDTDRSGTICSSELPGAFEAAGFHLNEHLYNMIIRRYSDESGNMDFDNFISCLVRLDAMFRAFKSLDKDGTGQIQVNIQEWLQLTMYS
modifications: FLAG tag
- degradation of HNF-1α ([1]; in the absence of calcium (10 mM EDTA instead of CaCl2)): not observed
- degradation of HNF-1α ([1]; in the presence of calcium (6 mM CaCl2), Western blotting): observed
